Experimental data from US20190330344A1 (F STAR THERAPEUTICS, published 2019).
Each block holds one molecule with its values, some of them ahead of it.

Experiments:
[1] = target: mouse LAG-3 expressed on cells (HEK cells expressing mLAG-3 or DO11.10 mLAG-3) (mouse) (UniProt Q61790); assay: cell-based or functional assay
human FcγRIII (human) = human FcγRIII (human) (UniProt P08637); assay: SPR (Biacore T200), FcγR immobilised, 200 µg/ml analyte
human FcγRI (human) = human FcγRI (human) (UniProt P12314); assay: as above
human FcγRIIb (human) = human FcγRIIb (human) (UniProt P31994); assay: SPR (Biacore T200), FcγR immobilised, 500 µg/ml analyte
human FcγRIIa (human) = human FcγRIIa (human) (UniProt P12318); assay: as above
[2] = target: T1, human LAG-3 expressed on cells (DO11.10 or HEK 293 cells over-expressing human LAG-3) (human, UniProt P18627 23-525); assay: cell-based or functional assay
T1 sequence: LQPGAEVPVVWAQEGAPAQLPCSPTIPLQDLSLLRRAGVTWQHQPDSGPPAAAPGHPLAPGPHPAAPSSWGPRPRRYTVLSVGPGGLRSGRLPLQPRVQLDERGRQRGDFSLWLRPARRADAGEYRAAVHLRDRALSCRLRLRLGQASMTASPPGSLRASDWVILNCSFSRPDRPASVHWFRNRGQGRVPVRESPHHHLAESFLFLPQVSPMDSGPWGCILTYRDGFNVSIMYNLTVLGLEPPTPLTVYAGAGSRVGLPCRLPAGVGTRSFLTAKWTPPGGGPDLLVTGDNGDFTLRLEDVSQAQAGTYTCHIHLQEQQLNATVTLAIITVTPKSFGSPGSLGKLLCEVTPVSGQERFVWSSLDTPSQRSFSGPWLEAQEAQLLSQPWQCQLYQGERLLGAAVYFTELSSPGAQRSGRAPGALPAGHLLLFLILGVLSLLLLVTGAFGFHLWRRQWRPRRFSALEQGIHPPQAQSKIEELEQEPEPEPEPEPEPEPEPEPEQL

[3] = target: T2, mouse LAG-3 expressed on cells (HEK cells expressing mLAG-3 or DO11.10 mLAG-3) (mouse, UniProt Q61790 24-521); assay: cell-based or functional assay
T2 sequence: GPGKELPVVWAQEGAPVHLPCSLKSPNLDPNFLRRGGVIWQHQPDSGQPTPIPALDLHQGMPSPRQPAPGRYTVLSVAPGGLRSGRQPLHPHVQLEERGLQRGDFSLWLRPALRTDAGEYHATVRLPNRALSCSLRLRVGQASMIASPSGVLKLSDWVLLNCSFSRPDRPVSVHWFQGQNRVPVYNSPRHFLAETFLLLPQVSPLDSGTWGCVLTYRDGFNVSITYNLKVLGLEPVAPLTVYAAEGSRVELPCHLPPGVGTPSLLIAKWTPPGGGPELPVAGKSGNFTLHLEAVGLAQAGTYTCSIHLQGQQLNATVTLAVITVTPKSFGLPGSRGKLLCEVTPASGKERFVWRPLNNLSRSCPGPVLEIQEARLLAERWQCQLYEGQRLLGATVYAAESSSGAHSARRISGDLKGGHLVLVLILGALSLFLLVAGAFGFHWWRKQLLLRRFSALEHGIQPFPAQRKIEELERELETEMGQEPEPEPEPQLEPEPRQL

Sequence of human FcγRIIa (human) (P12318 36-218 limits assumed): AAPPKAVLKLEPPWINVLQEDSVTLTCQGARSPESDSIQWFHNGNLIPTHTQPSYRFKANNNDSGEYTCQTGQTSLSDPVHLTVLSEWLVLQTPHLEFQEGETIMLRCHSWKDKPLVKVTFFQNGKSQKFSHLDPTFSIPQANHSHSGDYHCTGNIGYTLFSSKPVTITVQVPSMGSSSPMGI
Sequence of human FcγRIII (human) (P08637 17-208 limits assumed): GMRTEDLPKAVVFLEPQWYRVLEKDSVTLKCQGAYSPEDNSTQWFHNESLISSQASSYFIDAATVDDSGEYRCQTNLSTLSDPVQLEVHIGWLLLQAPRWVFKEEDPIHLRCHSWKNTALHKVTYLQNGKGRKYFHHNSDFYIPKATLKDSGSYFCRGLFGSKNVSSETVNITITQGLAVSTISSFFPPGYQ
Sequence of human FcγRIIb (human) (P31994 46-217 limits assumed): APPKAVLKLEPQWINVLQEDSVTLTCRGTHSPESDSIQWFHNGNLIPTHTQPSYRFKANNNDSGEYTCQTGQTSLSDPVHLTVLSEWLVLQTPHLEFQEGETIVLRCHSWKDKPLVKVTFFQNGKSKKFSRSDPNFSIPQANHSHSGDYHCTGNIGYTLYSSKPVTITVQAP
Sequence of human FcγRI (human) (P12314 16-288 limits assumed): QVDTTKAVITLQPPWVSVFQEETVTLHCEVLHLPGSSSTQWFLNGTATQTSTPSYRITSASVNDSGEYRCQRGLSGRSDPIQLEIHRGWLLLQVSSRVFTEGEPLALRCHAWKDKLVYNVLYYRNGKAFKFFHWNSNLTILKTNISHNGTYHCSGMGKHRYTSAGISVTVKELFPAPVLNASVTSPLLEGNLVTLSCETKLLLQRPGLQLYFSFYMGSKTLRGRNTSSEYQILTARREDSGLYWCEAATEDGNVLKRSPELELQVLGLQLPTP

B1: anti-human LAG-3 Fcab FS18-7-95 with truncated hinge and LALA mutation (designed binder)
chain: TCPPCPAPEAAGGPSVFLFPPKPKDTLMISRTPEVTCVVVDVSHEDPEVKFNWYVDGVEVHNAKTKPREEQYNSTYRVVSVLTVLHQDWLNGKEYKCKVSNKALPAPIEKTISKAKGQPREPQVYTLPPSWDEPWGEDVSLTCLVKGFYPSDIAVEWESNGYQEDNYKTTPPVLDSDGSFFLYSKLTVPYDRWVWPDEFSCSVMHEALHNHYTQKSLSLSPG
- EC50 of mIL-2 release, DO11.10 T cell activation assay (human LAG-3) [2]: 0.8 nM

B2: anti-human LAG-3 Fcab FS18-7-65 with truncated hinge and LALA mutation (designed binder)
chain: TCPPCPAPEAAGGPSVFLFPPKPKDTLMISRTPEVTCVVVDVSHEDPEVKFNWYVDGVEVHNAKTKPREEQYNSTYRVVSVLTVLHQDWLNGKEYKCKVSNKALPAPIEKTISKAKGQPREPQVYTLPPSWDEPWGEDVSLTCLVKGFYPSDIAVEWESNGYAEYNYKTTPPVLDSDGSFFLYSKLTVPYDRWVWPDEFSCSVMHEALHNHYTQKSLSLSPG
- EC50 of mIL-2 release, DO11.10 T cell activation assay (human LAG-3) [2]: 1.1 nM

B3: anti-human LAG-3 Fcab FS18-7-78 with truncated hinge and LALA mutation (designed binder)
chain: TCPPCPAPEAAGGPSVFLFPPKPKDTLMISRTPEVTCVVVDVSHEDPEVKFNWYVDGVEVHNAKTKPREEQYNSTYRVVSVLTVLHQDWLNGKEYKCKVSNKALPAPIEKTISKAKGQPREPQVYTLPPSWDEPWGEDVSLTCLVKGFYPSDIAVEWESNGYKEENYKTTPPVLDSDGSFFLYSKLTVPYDRWVWPDEFSCSVMHEALHNHYTQKSLSLSPG
- EC50 of mIL-2 release, DO11.10 T cell activation assay (human LAG-3) [2]: 1 nM

B4: anti-human LAG-3 Fcab FS18-7-9 with truncated hinge and LALA mutation (designed binder)
chain: TCPPCPAPEAAGGPSVFLFPPKPKDTLMISRTPEVTCVVVDVSHEDPEVKFNWYVDGVEVHNAKTKPREEQYNSTYRVVSVLTVLHQDWLNGKEYKCKVSNKALPAPIEKTISKAKGQPREPQVYTLPPSWDEPWGEDVSLTCLVKGFYPSDIAVEWESNGQPENNYKTTPPVLDSDGSFFLYSKLTVPYDRWVWPDEFSCSVMHEALHNHYTQKSLSLSPG
- EC50 of mIL-2 release, DO11.10 T cell activation assay (human LAG-3) [2]: 1.2 nM

B5: anti-human LAG-3 Fcab FS18-7-32 with truncated hinge and LALA mutation (designed binder)
chain: TCPPCPAPEAAGGPSVFLFPPKPKDTLMISRTPEVTCVVVDVSHEDPEVKFNWYVDGVEVHNAKTKPREEQYNSTYRVVSVLTVLHQDWLNGKEYKCKVSNKALPAPIEKTISKAKGQPREPQVYTLPPSWDEPWGEDVSLTCLVKGFYPSEIAVEWESNGQPENNYKTTPPVLDSDGSFFLYSKLTVPYDRWVWPDEFSCSVMHEALHNHYTQKSLSLSPG
- EC50 of mIL-2 release, DO11.10 T cell activation assay (human LAG-3) [2]: 1.7 nM

B6: anti-human LAG-3 Fcab FS18-7-36 with truncated hinge and LALA mutation (designed binder)
chain: TCPPCPAPEAAGGPSVFLFPPKPKDTLMISRTPEVTCVVVDVSHEDPEVKFNWYVDGVEVHNAKTKPREEQYNSTYRVVSVLTVLHQDWLNGKEYKCKVSNKALPAPIEKTISKAKGQPREPQVYTLPPSWDEPWGEDVSLTCLVKGFYPSDIAVEWESNGQPENNYKTTPPVLDSDGSYFLYSKLTVPYDRWVWPDEFSCSVMHEALHNHYTQKSLSLSPG
- EC50 of mIL-2 release, DO11.10 T cell activation assay (human LAG-3) [2]: 1.3 nM

B7: anti-human LAG-3 Fcab FS18-7-33 with truncated hinge and LALA mutation (designed binder)
chain: TCPPCPAPEAAGGPSVFLFPPKPKDTLMISRTPEVTCVVVDVSHEDPEVKFNWYVDGVEVHNAKTKPREEQYNSTYRVVSVLTVLHQDWLNGKEYKCKVSNKALPAPIEKTISKAKGQPREPQVYTLPPSWDEPWGEDVSLTCLVKGFYPSDIAVEWESNGQPEDNYKTTPPVLDSDGSFFLYSKLTVPYDRWVWPDEFSCSVMHEALHNHYTQKSLSLSPG
- EC50 of mIL-2 release, DO11.10 T cell activation assay (human LAG-3) [2]: 1.1 nM

B9: anti-human LAG-3 Fcab FS18-7-58 with truncated hinge and LALA mutation (designed binder)
chain: TCPPCPAPEAAGGPSVFLFPPKPKDTLMISRTPEVTCVVVDVSHEDPEVKFNWYVDGVEVHNAKTKPREEQYNSTYRVVSVLTVLHQDWLNGKEYKCKVSNKALPAPIEKTISKAKGQPREPQVYTLPPSWDEPWGEDVSLTCLVKGFYPSDIAVEWESNGYPEIEFKTTPPVLDSDGSFFLYSKLTVPYDRWVWPDEFSCSVMHEALHNHYTQKSLSLSPG
- EC50 of mIL-2 release, DO11.10 T cell activation assay (human LAG-3) [2]: 1.3 nM

B11: anti-human LAG-3 Fcab FS18-7-88 with truncated hinge and LALA mutation (designed binder)
chain: TCPPCPAPEAAGGPSVFLFPPKPKDTLMISRTPEVTCVVVDVSHEDPEVKFNWYVDGVEVHNAKTKPREEQYNSTYRVVSVLTVLHQDWLNGKEYKCKVSNKALPAPIEKTISKAKGQPREPQVYTLPPSWDEPWGEDVSLTCLVKGFYPSDIAVEWESNGVPELNVKTTPPVLDSDGSFFLYSKLTVPYDRWVWPDEFSCSVMHEALHNHYTQKSLSLSPG
- EC50 of mIL-2 release, DO11.10 T cell activation assay (human LAG-3) [2]: 1.3 nM

B12: anti-human LAG-3 Fcab FS18-7-62 with truncated hinge and LALA mutation (designed binder)
chain: TCPPCPAPEAAGGPSVFLFPPKPKDTLMISRTPEVTCVVVDVSHEDPEVKFNWYVDGVEVHNAKTKPREEQYNSTYRVVSVLTVLHQDWLNGKEYKCKVSNKALPAPIEKTISKAKGQPREPQVYTLPPSWDEPWGEDVSLTCLVKGFYPSDIAVEWESNGIPEWNYKTTPPVLDSDGSFFLYSKLTVPYDRWVWPDEFSCSVMHEALHNHYTQKSLSLSPG
- EC50 of mIL-2 release, DO11.10 T cell activation assay (human LAG-3) [2]: 1.1 nM

More lines, now with the values ahead:

- EC50 of mIL-2 release, DO11.10 T cell activation assay (mouse LAG-3) [1]: 5.1 nM
- Maximal IL-2 release [1]: 48 pg/mL
Molecule: benchmark anti-mouse LAG-3 mAb C9B7W (2B Scientific, BE0174-50MG) (antibody)

- Binding response at end of association (RU) (human FcγRIII (human)): 44 RU
- Binding response at end of association (RU) (human FcγRI (human)): 26 RU
- Binding response at end of association (RU) (human FcγRIIb (human)): 17.7 RU
- Binding response at end of association (RU) (human FcγRIIa (human)): 13 RU
Molecule: mock mAb IgG1 (wild type IgG1 isotype mAb, positive control without LALA) (antibody)

- Binding response at end of association (RU) (human FcγRIII (human)): 8 RU
- Binding response at end of association (RU) (human FcγRI (human)): 2 RU
- Binding response at end of association (RU) (human FcγRIIb (human)): -9.6 RU
- Binding response at end of association (RU) (human FcγRIIa (human)): -12.7 RU
Molecule: mock mAb LALA (control LALA IgG1 mAb) (antibody)

- EC50 of mIL-2 release, DO11.10 T cell activation assay (mouse LAG-3) [3]: 1.9 nM
B8: surrogate anti-mouse LAG-3 Fcab FS18-7-108-29 with truncated hinge, comprising LALA mutation (designed binder)
chain: TCPPCPAPEAAGGPSVFLFPPKPKDTLMISRTPEVTCVVVDVSHEDPEVKFNWYVDGVEVHNAKTKPREEQYNSTYRVVSVLTVLHQDWLNGKEYKCKVSNKALPAPIEKTISKAKGQPREPQVYTLPPSWDEPWGEDVSLTCLVKGFYPSDIVVEWESNGQPENNYKTTPPVLDSDGSFFLYSKLTVPFERWMWPDEFSCSVMHEALHNHYTQKSLSLSPG

- EC50 of mIL-2 release, DO11.10 T cell activation assay (mouse LAG-3) [3]: 1.8 nM
B10: surrogate anti-mouse LAG-3 Fcab FS18-7-108-35 with truncated hinge, comprising LALA mutation (designed binder)
chain: TCPPCPAPEAAGGPSVFLFPPKPKDTLMISRTPEVTCVVVDVSHEDPEVKFNWYVDGVEVHNAKTKPREEQYNSTYRVVSVLTVLHQDWLNGKEYKCKVSNKALPAPIEKTISKAKGQPREPQVYTLPPSWDEPWGEDVSLTCLVKGFYPSDISVEWESNGQPENNYKTTPPVLDSDGSFFLYSKLTVPFERWMWPDEFSCSVMHEALHNHYTQKSLSLSPG
